Data as given in publication PMC7560200 (The EMBO Journal, 2020).

Molecular target: GST-CENP-C (1-727) (human, UniProt Q03188 1-727)
Test: pull-down

GST-CENP-C (1-727), sequence (Q03188 1-727): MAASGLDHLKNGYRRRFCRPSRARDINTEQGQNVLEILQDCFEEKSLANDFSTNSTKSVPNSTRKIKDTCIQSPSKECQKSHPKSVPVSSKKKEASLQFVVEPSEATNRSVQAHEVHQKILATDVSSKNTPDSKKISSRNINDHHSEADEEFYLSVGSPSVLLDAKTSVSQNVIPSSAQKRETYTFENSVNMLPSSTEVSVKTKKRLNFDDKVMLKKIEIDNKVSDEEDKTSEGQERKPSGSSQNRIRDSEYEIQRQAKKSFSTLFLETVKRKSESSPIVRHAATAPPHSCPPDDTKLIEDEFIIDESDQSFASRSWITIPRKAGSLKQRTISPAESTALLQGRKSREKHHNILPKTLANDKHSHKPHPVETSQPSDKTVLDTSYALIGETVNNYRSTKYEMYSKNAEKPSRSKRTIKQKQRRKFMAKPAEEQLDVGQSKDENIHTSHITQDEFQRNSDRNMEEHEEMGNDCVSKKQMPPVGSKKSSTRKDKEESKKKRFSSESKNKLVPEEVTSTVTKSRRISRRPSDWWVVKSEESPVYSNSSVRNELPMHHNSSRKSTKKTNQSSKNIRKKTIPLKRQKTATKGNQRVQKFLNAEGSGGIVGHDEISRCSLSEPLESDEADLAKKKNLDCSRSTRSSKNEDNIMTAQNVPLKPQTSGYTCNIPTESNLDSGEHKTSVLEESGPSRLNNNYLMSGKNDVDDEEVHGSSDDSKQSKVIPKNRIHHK

binding result: binds
B1: His-CENP-B (161–599) (domain or fragment, human, UniProt P07199 161-599, looked up)
chain: PSEGSGGSTTGWRAREEQPPSVAEGYASQDVFSATETSLWYDFLPDQAAGLCGGDGRPRQATQRLSVLLCANADGSEKLPPLVAGKSAKPRAGQAGLPCDYTANSKGGVTTQALAKYLKALDTRMAAESRRVLLLAGRLAAQSLDTSGLRHVQLAFFPPGTVHPLERGVVQQVKGHYRQAMLLKAMAALEGQDPSGLQLGLTEALHFVAAAWQAVEPSDIAACFREAGFGGGPNATITTSLKSEGEEEEEEEEEEEEEEGEGEEEEEEGEEEEEEGGEGEELGEEEEVEEEGDVDSDEEEEEDEESSSEGLEAEDWAQGVVEAGGSFGAYGAQEEAQCPTLHFLEGGEDSDSDSEEEDDEEEDDEDEDDDDDEEDGDEVPVPSFGEAMAYFAMVKRYLTSFPIDDRVQSHILHLEHDLVHVTRKNHARQAGVRGLGHQS
